Test results as given in patent US10676749.

Experiments:
Assay in all cases: cell_activity
[1] = tested on: TALE-VP64 VEGF8-5 (synthetic); details: VEGF-A ELISA, 293 cells
[2] = tested on: TALE-VP64 VEGF9-2 (synthetic); details: VEGF-A ELISA, 293 cells
[3] = tested on: TALE-VP64 VEGF1-1 (synthetic); details: VEGF-A ELISA, 293 cells; range 5.3-114 over 53 active TALEs
[4] = tested on: TALE-VP64 VEGF1-2 (synthetic); details: VEGF-A ELISA, 293 cells
[5] = tested on: TALE-VP64 VEGF7-5 (synthetic); details: VEGF-A ELISA, 293 cells
[6] = tested on: TALE-VP64 VEGF3-5 (synthetic); details: VEGF-A ELISA, 293 cells
[7] = tested on: TALE-VP64 VEGF8-4 (synthetic); details: VEGF-A ELISA, 293 cells
[8] = tested on: TALE-VP64 VEGF7-3 (synthetic); details: VEGF-A ELISA, 293 cells
[9] = tested on: TALE-VP64 VEGF7-6 (synthetic); details: VEGF-A ELISA, 293 cells
[10] = tested on: TALE-VP64 VEGF4-4 (synthetic); details: VEGF-A ELISA, 293 cells
[11] = tested on: TALE-VP64 VEGF5-4 (synthetic); details: VEGF-A ELISA, 293 cells
[12] = tested on: TALE-VP64 VEGF6-1 (synthetic); details: VEGF-A ELISA, 293 cells
[13] = tested on: TALE-VP64 VEGF1-4 (synthetic); details: VEGF-A ELISA, 293 cells; site printed with S at position 6
[14] = tested on: TALE-VP64 VEGF3-3 (synthetic); details: VEGF-A ELISA, 293 cells
[15] = tested on: TALE-VP64 VEGF5-3 (synthetic); details: VEGF-A ELISA, 293 cells
[16] = tested on: TALE-VP64 VEGF9-5 (synthetic); details: VEGF-A ELISA, 293 cells
[17] = tested on: TALE-VP64 VEGF6-6 (synthetic); details: VEGF-A ELISA, 293 cells
[18] = tested on: TALE-VP64 VEGF8-3 (synthetic); details: VEGF-A ELISA, 293 cells
[19] = tested on: TALE-VP64 VEGF2-5 (synthetic); details: VEGF-A ELISA, 293 cells
[20] = tested on: TALE-VP64 VEGF4-3 (synthetic); details: VEGF-A ELISA, 293 cells
[21] = tested on: TALE-VP64 VEGF6-3 (synthetic); details: VEGF-A ELISA, 293 cells
[22] = tested on: TALE-VP64 VEGF9-1 (synthetic); details: VEGF-A ELISA, 293 cells
[23] = tested on: TALE-VP64 VEGF3-1 (synthetic); details: VEGF-A ELISA, 293 cells
[24] = tested on: TALE-VP64 VEGF2-6 (synthetic); details: VEGF-A ELISA, 293 cells
[25] = tested on: TALE-VP64 Ntf3-2 (synthetic); details: NTF3 qRT-PCR, 293 cells
[26] = tested on: TALE-VP64 VEGF2-4 (synthetic); details: VEGF-A ELISA, 293 cells
[27] = tested on: TALE-VP64 Ntf3-1 (synthetic); details: NTF3 qRT-PCR, 293 cells; weakest about 1000-fold
[28] = tested on: TALE-VP64 VEGF8-6 (synthetic); details: VEGF-A ELISA, 293 cells
[29] = tested on: TALE-VP64 VEGF6-4 (synthetic); details: VEGF-A ELISA, 293 cells
[30] = tested on: TALE-VP64 VEGF8-1 (synthetic); details: VEGF-A ELISA, 293 cells
[31] = tested on: TALE-VP64 VEGF5-2 (synthetic); details: VEGF-A ELISA, 293 cells
[32] = tested on: TALE-VP64 VEGF3-2 (synthetic); details: VEGF-A ELISA, 293 cells
[33] = tested on: TALE-VP64 VEGF2-1 (synthetic); details: VEGF-A ELISA, 293 cells
[34] = tested on: TALE-VP64 Ntf3-4 (synthetic); details: NTF3 qRT-PCR, 293 cells
[35] = tested on: TALE-VP64 VEGF9-6 (synthetic); details: VEGF-A ELISA, 293 cells
[36] = tested on: TALE-VP64 VEGF5-5 (synthetic); details: VEGF-A ELISA, 293 cells
[37] = tested on: TALE-VP64 VEGF6-5 (synthetic); details: VEGF-A ELISA, 293 cells
[38] = tested on: TALE-VP64 VEGF5-1 (synthetic); details: VEGF-A ELISA, 293 cells
[39] = tested on: TALE-VP64 VEGF1-5 (synthetic); details: VEGF-A ELISA, 293 cells
[40] = tested on: TALE-VP64 VEGF6-2 (synthetic); details: VEGF-A ELISA, 293 cells
[41] = tested on: TALE-VP64 VEGF1-6 (synthetic); details: VEGF-A ELISA, 293 cells
[42] = tested on: TALE-VP64 VEGF4-6 (synthetic); details: VEGF-A ELISA, 293 cells
[43] = tested on: TALE-VP64 VEGF3-4 (synthetic); details: VEGF-A ELISA, 293 cells
[44] = tested on: TALE-VP64 Ntf3-5 (synthetic); details: NTF3 qRT-PCR, 293 cells
[45] = tested on: TALE-VP64 VEGF2-3 (synthetic); details: VEGF-A ELISA, 293 cells
[46] = tested on: TALE-VP64 VEGF9-4 (synthetic); details: VEGF-A ELISA, 293 cells
[47] = tested on: TALE-VP64 VEGF9-3 (synthetic); details: VEGF-A ELISA, 293 cells
[48] = tested on: TALE-VP64 VEGF3-6 (synthetic); details: VEGF-A ELISA, 293 cells
[49] = tested on: TALE-VP64 VEGF4-5 (synthetic); details: VEGF-A ELISA, 293 cells
[50] = tested on: TALE-VP64 VEGF5-6 (synthetic); details: VEGF-A ELISA, 293 cells
[51] = tested on: TALE-VP64 VEGF7-4 (synthetic); details: VEGF-A ELISA, 293 cells
[52] = tested on: TALE-VP64 VEGF2-2 (synthetic); details: VEGF-A ELISA, 293 cells
[53] = tested on: TALE-VP64 VEGF7-2 (synthetic); details: VEGF-A ELISA, 293 cells
[54] = tested on: TALE-VP64 VEGF1-3 (synthetic); details: VEGF-A ELISA, 293 cells
[55] = tested on: TALE-VP64 VEGF4-1 (synthetic); details: VEGF-A ELISA, 293 cells
[56] = tested on: TALE-VP64 VEGF8-2 (synthetic); details: VEGF-A ELISA, 293 cells
[57] = tested on: TALE-VP64 VEGF4-2 (synthetic); details: VEGF-A ELISA, 293 cells
[58] = tested on: TALE-VP64 Ntf3-3 (synthetic); details: NTF3 qRT-PCR, 293 cells

## TCCACTGTCCGCCGCCGGCCGGGG (double strand) [VEGF8-5 site]
[1]
  activity (fold activation): > 5.3

## TCCACCCCGCCTCCGGGC (double strand) [VEGF9-2 site]
[2]
  activity (fold activation): > 5.3

## TTGGGGGTGACCGCCG (double strand) [VEGF1-1 site]
[3]
  activity (fold activation): > 5.3

## TTGGGGGTGACCGCCGGA (double strand) [VEGF1-2 site]
[4]
  activity (fold activation): > 5.3

## TCCGTCAGCGCGACTGGTCAGCTG (double strand) [VEGF7-5 site]
[5]
  activity (fold activation): > 5.3

## TACCACCTCCTCCCCGGCCGGCGG (double strand) [VEGF3-5 site]
[6]
  activity (fold activation): > 5.3

## TCCACTGTCCGCCGCCGGCCGG (double strand) [VEGF8-4 site]
[7]
  activity (fold activation): > 5.3

## TCCGTCAGCGCGACTGGTCA (double strand) [VEGF7-3 site]
[8]
  activity (fold activation): > 5.3

## TCCGTCAGCGCGACTGGTCAGCTGCG (double strand) [VEGF7-6 site]
[9]
  activity (fold activation): > 5.3

## TCCCCGGCCGGCGGCGGACAGT (double strand) [VEGF4-4 site]
[10]
  activity (fold activation): > 5.3

## TGGACGCGGCGGCGAGCCGCGG (double strand) [VEGF5-4 site]
[11]
  activity (fold activation): > 5.3

## TCCCAAGGGGGAGGGC (double strand) [VEGF6-1 site]
[12]
  activity (fold activation): > 5.3

## TTGGGGGTGACCGCCGGAGCGC (double strand) [VEGF1-4 site]
[13]
  activity (fold activation): > 5.3

## TACCACCTCCTCCCCGGCCG (double strand) [VEGF3-3 site]
[14]
  activity (fold activation): > 5.3

## TGGACGCGGCGGCGAGCCGC (double strand) [VEGF5-3 site]
[15]
  activity (fold activation): > 5.3

## TCCACCCCGCCTCCGGGCGCGGGC (double strand) [VEGF9-5 site]
[16]
  activity (fold activation): > 5.3

## TCCCAAGGGGGAGGGCTCACGCCGCG (double strand) [VEGF6-6 site]
[17]
  activity (fold activation): > 5.3

## TCCACTGTCCGCCGCCGGCC (double strand) [VEGF8-3 site]
[18]
  activity (fold activation): > 5.3

## TCCCGCAGCTGACCAGTCGCGCTG (double strand) [VEGF2-5 site]
[19]
  activity (fold activation): > 5.3

## TCCCCGGCCGGCGGCGGACA (double strand) [VEGF4-3 site]
[20]
  activity (fold activation): > 5.3

## TCCCAAGGGGGAGGGCTCAC (double strand) [VEGF6-3 site]
[21]
  activity (fold activation): > 5.3

## TCCACCCCGCCTCCGG (double strand) [VEGF9-1 site]
[22]
  activity (fold activation): > 5.3

## TACCACCTCCTCCCCG (double strand) [VEGF3-1 site]
[23]
  activity (fold activation): > 5.3

## TCCCGCAGCTGACCAGTCGCGCTGAC (double strand) [VEGF2-6 site]
[24]
  activity (fold activation): > 5.3

## TCCGAACAGCTCCGCGCA (double strand) [Ntf3-2 site]
[25]
  activity (fold activation (approx)): > 1000

## TCCCGCAGCTGACCAGTCGCGC (double strand) [VEGF2-4 site]
[26]
  activity (fold activation): > 5.3

## TTCTGTTCACGGGACTCA (double strand) [Ntf3-1 site]
[27]
  activity (fold activation (approx)): > 1000

## TCCACTGTCCGCCGCCGGCCGGGGAG (double strand) [VEGF8-6 site]
[28]
  activity (fold activation): > 5.3

## TCCCAAGGGGGAGGGCTCACGC (double strand) [VEGF6-4 site]
[29]
  activity (fold activation): > 5.3

## TCCACTGTCCGCCGCC (double strand) [VEGF8-1 site]
[30]
  activity (fold activation): > 5.3

## TGGACGCGGCGGCGAGCC (double strand) [VEGF5-2 site]
[31]
  activity (fold activation): > 5.3

## TACCACCTCCTCCCCGGC (double strand) [VEGF3-2 site]
[32]
  activity (fold activation): > 5.3

## TCCCGCAGCTGACCAG (double strand) [VEGF2-1 site]
[33]
  activity (fold activation): > 5.3

## TACGCCTCAGACCTGATC (double strand) [Ntf3-4 site]
[34]
  activity (fold activation (approx)): > 1000

## TCCACCCCGCCTCCGGGCGCGGGCTC (double strand) [VEGF9-6 site]
[35]
  activity (fold activation): > 5.3

## TGGACGCGGCGGCGAGCCGCGGGC (double strand) [VEGF5-5 site]
[36]
  activity (fold activation): > 5.3

## TCCCAAGGGGGAGGGCTCACGCCG (double strand) [VEGF6-5 site]
[37]
  activity (fold activation): > 5.3

## TGGACGCGGCGGCGAG (double strand) [VEGF5-1 site]
[38]
  activity (fold activation): > 5.3

## TTGGGGGTGACCGCCGGAGCGCGG (double strand) [VEGF1-5 site]
[39]
  activity (fold activation): > 5.3

## TCCCAAGGGGGAGGGCTC (double strand) [VEGF6-2 site]
[40]
  activity (fold activation): > 5.3

## TTGGGGGTGACCGCCGGAGCGCGGCG (double strand) [VEGF1-6 site]
[41]
  activity (fold activation): > 5.3

## TCCCCGGCCGGCGGCGGACAGTGGAC (double strand) [VEGF4-6 site]
[42]
  activity (fold activation): > 5.3

## TACCACCTCCTCCCCGGCCGGC (double strand) [VEGF3-4 site]
[43]
  activity (fold activation): > 5.3

## TCCCTCAATCTGGGAAAG (double strand) [Ntf3-5 site]
[44]
  activity (fold activation (approx)): > 1000

## TCCCGCAGCTGACCAGTCGC (double strand) [VEGF2-3 site]
[45]
  activity (fold activation): > 5.3

## TCCACCCCGCCTCCGGGCGCGG (double strand) [VEGF9-4 site]
[46]
  activity (fold activation): > 5.3

## TCCACCCCGCCTCCGGGCGC (double strand) [VEGF9-3 site]
[47]
  activity (fold activation): > 5.3

## TACCACCTCCTCCCCGGCCGGCGGCG (double strand) [VEGF3-6 site]
[48]
  activity (fold activation): > 5.3

## TCCCCGGCCGGCGGCGGACAGTGG (double strand) [VEGF4-5 site]
[49]
  activity (fold activation): > 5.3

## TGGACGCGGCGGCGAGCCGCGGGCAG (double strand) [VEGF5-6 site]
[50]
  activity (fold activation): > 5.3

## TCCGTCAGCGCGACTGGTCAGC (double strand) [VEGF7-4 site]
[51]
  activity (fold activation): > 5.3

## TCCCGCAGCTGACCAGTC (double strand) [VEGF2-2 site]
[52]
  activity (fold activation): > 5.3

## TCCGTCAGCGCGACTGGT (double strand) [VEGF7-2 site]
[53]
  activity (fold activation): > 5.3

## TTGGGGGTGACCGCCGGAGC (double strand) [VEGF1-3 site]
[54]
  activity (fold activation): > 5.3

## TCCCCGGCCGGCGGCG (double strand) [VEGF4-1 site]
[55]
  activity (fold activation): > 5.3

## TCCACTGTCCGCCGCCGG (double strand) [VEGF8-2 site]
[56]
  activity (fold activation): > 5.3

## TCCCCGGCCGGCGGCGGA (double strand) [VEGF4-2 site]
[57]
  activity (fold activation): > 5.3

## TTCCCCTGCTGGGTAGTG (double strand) [Ntf3-3 site]
[58]
  activity (fold activation (approx)): > 1000
